Source: doi:10.1101/2021.10.06.463398, “Disruption of nucleoid expanded conformation by toxic aberrant proteins synthesized in Escherichia coli” (bioRxiv, 2021)
The star is where a group is joined. FITC = O=C1OC2(c3ccc(O)cc3Oc3cc(O)ccc32)c2ccc(NC(=S)*)cc21

B1: KL peptide, FITC-TEKAKLVIKLLALGKTEQ-NH2 (KL decapeptide of ARF48 with flanking extensions) (peptide)
peptide: {FITC}-TEKAKLVIKLLALGKTEQ-NH2
notes: ARF48 is a 48-residue product of the +1 alternate reading frame of Arabidopsis thaliana cDNA At3G62370, not a natural protein), C-terminal extension KTEQ; The core decapeptide is not part of a natural protein: it is an alternate-reading-frame translation product; also called synthetic KL decapeptide; source: synthetic peptide (Peptide 2.0, Inc.)
B2: NR peptide, FITC-TEKANRLLLTGKTEQ-NH2 (canonical DnaK peptide substrate NRLLLTG with flanking extensions) (peptide)
peptide: {FITC}-TEKANRLLLTGKTEQ-NH2
notes: N-terminal extension TEKA, canonical DnaK substrate heptapeptide NRLLLTG, C-terminal extension KTEQ; source: synthetic peptide (Peptide 2.0, Inc.)

Target: T1, 6His-DnaK (E. coli molecular chaperone DnaK) (E. coli, UniProt P0A6Y8 1-638)
T1 construct: No tag removal is described; also called purified E. coli DnaK protein; source: E. coli, ASKA expression clone, purified (Ni-NTA agarose)
Experiment: MST; 20 nM fluorescein-labelled peptide with varying concentrations of DnaK; MST buffer (50 mM Tris pH 7.4, 150 mM NaCl, 10 mM MgCl2, 0.05% Tween-20, 0.05% bovine serum albumin); 1 h at 20°C; Monolith NT.115
Conditions: both partners purified

T1 sequence (P0A6Y8 whole entry): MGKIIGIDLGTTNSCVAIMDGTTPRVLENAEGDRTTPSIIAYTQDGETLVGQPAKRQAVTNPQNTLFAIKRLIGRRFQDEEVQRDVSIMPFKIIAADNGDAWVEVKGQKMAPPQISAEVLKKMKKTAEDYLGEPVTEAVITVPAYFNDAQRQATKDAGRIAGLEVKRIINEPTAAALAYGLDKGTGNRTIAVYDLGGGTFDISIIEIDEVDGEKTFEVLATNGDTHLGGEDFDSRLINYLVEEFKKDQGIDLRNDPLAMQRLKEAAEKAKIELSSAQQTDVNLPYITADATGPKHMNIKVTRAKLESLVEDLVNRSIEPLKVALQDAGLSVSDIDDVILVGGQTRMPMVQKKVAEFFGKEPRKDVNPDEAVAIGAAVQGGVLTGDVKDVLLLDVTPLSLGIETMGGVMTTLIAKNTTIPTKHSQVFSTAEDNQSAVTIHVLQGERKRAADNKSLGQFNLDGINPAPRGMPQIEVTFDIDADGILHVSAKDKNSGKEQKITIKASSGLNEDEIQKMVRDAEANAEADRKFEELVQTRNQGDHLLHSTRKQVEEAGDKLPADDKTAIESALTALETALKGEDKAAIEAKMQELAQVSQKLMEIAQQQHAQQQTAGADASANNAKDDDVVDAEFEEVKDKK

| Binder | binding result |
| --- | --- |
| B1 | binds |
| B2 | binds |
